The supplement of paper PMC12764529
± gives the half width of the 95% confidence interval.

Experiments:
[1] = folding stability dG unfold from trypsin proteolysis; higher = more stable
How it was run: (§1)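 Designed mini-proteins with no cysteine and under 80 residues were kept only if AlphaFold2 dimer inter-PAE was above 15. In a PA-tagged cDNA display construct, they were digested with trypsin and chymotrypsin and then sequenced. K50 was inferred by Bayesian fitting of counts, and unfolding free energy was derived per protease or combined against a sequence-predicted unfolded-state K50 and a shared folded-state K50.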

[2] = folding stability dG unfold from chymotrypsin proteolysis; higher = more stable
How it was run: as §1

[3] = folding stability dG unfold (combined trypsin and chymotrypsin); higher = more stable
How it was run: as §1

Sequence	folding stability dG unfold [1]	folding stability dG unfold [2]	folding stability dG unfold [3]
SAGGSLLEQEAAARGYQVEIERIPGTGVYLVTLTPPDGSRVVVTVEVVKTPKTGLVELRTLETRELPPSAGG [r13_936_JUSTAS]	1.24 ± 0.023 kcal/mol	1.707 ± 0.011 kcal/mol	1.53 ± 0.052 kcal/mol
SAKIVIIPLGDKAIIIITDENGKTKTIELPGISKIEIKGDHLKIYDPKTGKLIIPPNWKGKDIIIIPGKSAG [r14_83_TrMRF]	2.25 ± 0.22 kcal/mol	3.32 ± 0.59 kcal/mol	2.9 ± 0.34 kcal/mol
SMMYLVNLRVEVYKDGKLVEEKEIAIAAPVEEALKIAEAIKESHPDAEVKVEIEVYEIPEDDPEFKEAFASA [r9_782_TrMRF]	2.25 ± 0.082 kcal/mol	2.87 ± 0.033 kcal/mol	2.68 ± 0.089 kcal/mol
SAGGSAGGSAGSVTLPKNQVGVSVESYEVTLPDETGESVTRYKITLRFAETGLSAEFYAGSAGGSAGGSAGG [r17_266_TrMRF]	1.2 ± 0.047 kcal/mol	1.34 ± 0.25 kcal/mol	1.26 ± 0.22 kcal/mol
MTEEEVRAEAEARARALAEERGVEITAVDIDGEVEQVVETTTRPTPDGRPVTETTSKKIKTKVRATLRPPRS [r1_91_JUSTAS]	-0.107 ± 0.27 kcal/mol	1.39 ± 0.053 kcal/mol	1.09 ± 0.14 kcal/mol
SAGGSASSMLSPSLYVTTITVKKPGGMTVTETVPGTPEEVERLIEELKKKGLEVEKVDVVPVSELVSAGGSA [r15_640_JUSTAS]	1.9 ± 0.062 kcal/mol	1.47 ± 0.034 kcal/mol	1.66 ± 0.058 kcal/mol
SAGGSYTVEELPPGGILRITFTVPKSRPAEVPLELKAPDGTPVDVESYSITPVGDTNVITYTIKVPLSAGGS [r16_499_JUSTAS]	1.57 ± 0.049 kcal/mol	1.81 ± 0.15 kcal/mol	1.85 ± 0.11 kcal/mol
SAGGDEIVERVRQLFEDLGFPVEIVDDDAPDGVLRVRISPEAVEKLGPLVINLPFPDIKEVRTELLPSAGGS [r8_318_TrMRF]	0.968 ± 0.013 kcal/mol	1.5 ± 0.015 kcal/mol	1.26 ± 0.025 kcal/mol
KKVKIEIEVEKVEDGYYVVRIKVKFEETEETIELELVFPKSLEEVLEKIKELLPEGQITEVEIEVYPLPEPS [r1_399_TrROS_Hall]	3.89 ± 0.23 kcal/mol	3.13 ± 0.25 kcal/mol	3.72 ± 0.67 kcal/mol
SAGGMKLVVTKVGEDDNTEYYLITDPGSAEAIREAIKKLVPKDLPYKVTVLSYDPATGTYTVLVEVKRSAGG [r13_491_JUSTAS]	2.91 ± 0.13 kcal/mol	3.67 ± 0.039 kcal/mol	3.44 ± 0.11 kcal/mol
SAGGRIHIPIPLNQAREILKKLAPDGRDVTAEPQGPSKDNVYYTIEFEPPKNGNEVDIEIWIPPPGDSAGGS [r16_486_TrROS]	-0.000485 ± 0.1 kcal/mol	-0.234 ± 0.36 kcal/mol	0.0968 ± 0.18 kcal/mol
SAGGSAGGMIEVESFPEIGYILVKAKSEKPEEIAKEVLEKFNVKEAVVFEDPEKPYVYILAKIDSAGGSAGG [r6_661_TrMRF]	0.97 ± 0.088 kcal/mol	1.26 ± 0.21 kcal/mol	1.13 ± 0.21 kcal/mol
SAGGSAGGSAGGSDDPDGKPKPQIPPIKVEPIPIKDPNGWSIEIYYFPWNGMLIISFYNSAGGSAGGSAGGS [r4_305_TrROS]	3.3 ± 0.22 kcal/mol	4.34 ± 0.12 kcal/mol	4.26 ± 0.2 kcal/mol
SAGGSMKIVEIKIKRNKNGKLTIEIKVELSEEELEDKEKRKKLIEELAKKLAEELEKKFGIKVEVPSAGGSA [r2_306_TrROS_Hall]	3.16 ± 0.089 kcal/mol	3.28 ± 0.091 kcal/mol	3.28 ± 0.14 kcal/mol
SAGGSAGGSMTLKVTLPNGKVIELPLPEELENIPAETIAKLLGEENVRLELYSPDGVPYDFGASAGGSAGGS [r12_411_TrMRF]	1.18 ± 0.029 kcal/mol	0.726 ± 0.09 kcal/mol	1.03 ± 0.099 kcal/mol
SAGGSAGGMEKYKVTITIERPDPNNPDVKTTEVTEVVLTPEEIEKLKKELAPTGYRVEITVIDESAGGSAGG [r6_857_JUSTAS]	2.6 ± 0.14 kcal/mol	2.51 ± 0.086 kcal/mol	2.45 ± 0.15 kcal/mol
SAGGMPEVKYLEITITVEVPTEEEALEKLKEELKKLFPNAEIVSVEVEVEEEDGKLTVTVKITVKLPSAGGS [r8_120_TrROS_Hall]	3.66 ± 0.22 kcal/mol	2.48 ± 0.11 kcal/mol	3.35 ± 0.16 kcal/mol
SAGGSAGGIEITEISRSEELLKLDVPEDTLVLKVKHPDGKEIEVTFPANIPIEEAKEKAKEFVESAGGSAGG [r6_986_TrMRF]	-0.248 ± 0.079 kcal/mol	-0.176 ± 0.15 kcal/mol	-0.188 ± 0.18 kcal/mol
SDPILEILKDAFQEFGIPVQVSIEPDPDGKRVIPIRIMSPKDMDENGMKMQEQTFPIKVNGKKWRVEISWSA [r9_489_TrROS]	1.45 ± 0.084 kcal/mol	1.31 ± 0.14 kcal/mol	1.41 ± 0.11 kcal/mol
SAGGSAGGSAGVPEGEEYLFTVKVTLTFEPVTVKDENGEEHEIDEVTITVTVTVLVKAEDSAGGSAGGSAGG [r11_907_TrROS_Hall]	2.33 ± 0.35 kcal/mol	3.24 ± 0.12 kcal/mol	2.93 ± 0.24 kcal/mol
SAGGSAGGSKKKVKVEIVEYDPETKKVTVRVTVDGKEYEFTFSTPEELEAAAKAGKIDEITLTSAGGSAGGS [r12_421_TrROS_Hall]	2.26 ± 0.059 kcal/mol	2.29 ± 0.043 kcal/mol	2.26 ± 0.066 kcal/mol

Sequence	folding stability dG unfold [1]	folding stability dG unfold [2]	folding stability dG unfold [3]
SAGGSAGGPPDIVTLPIWIGGLKVEIMVYPDGSVTIMFRFPDWYYMITFPLKNGKIEIEWVPLKSAGGSAGG [r6_555_TrROS]	3.16 ± 0.11 kcal/mol	3.54 ± 0.1 kcal/mol	3.35 ± 0.22 kcal/mol
SAGNMFMVRITFPMPRYEQKRDPDNGKPKMEPKPHPREITIMVPPDSPQARDLANKLAPPGWKVDVFPMSAG [r5_468_TrROS]	0.0695 ± 0.58 kcal/mol	1.43 ± 0.22 kcal/mol	1.09 ± 0.19 kcal/mol
SAGGMTLVLRFPSKEEALEALRELAEALGLEVEITKIEIEEREVEDPETGEKRREVLITIEVKVKPPSAGGS [r16_587_TrROS_Hall]	3.83 ± 0.37 kcal/mol	4.62 ± 0.14 kcal/mol	4.48 ± 0.29 kcal/mol
SVPPNAPPGMKPKRVEIFIFIPPELYDKDGKISPEQLKKAKGMAKMIKLRLREQYPGYGIDDVKVHIMPGSA [r9_943_TrROS]	2.76 ± 0.052 kcal/mol	3.303 ± 0.022 kcal/mol	3.14 ± 0.097 kcal/mol
SAGMPSFTTTSAPTEQLPELLAELATRPPNVSYTFPLPDPSRSLSLSVSADRITLTDPATGTTTTLPASAGG [r19_154_JUSTAS]	-0.653 ± 0.17 kcal/mol	-1.12 ± 0.51 kcal/mol	-0.779 ± 0.2 kcal/mol
SAGGSAGGSAGMTLEIEVDPDNKVIELKIYIGGKPVEMTIVVTPNSGYIRIPDGGWIPIESAGGSAGGSAGG [r11_395_TrROS]	2.1 ± 0.053 kcal/mol	3.37 ± 0.065 kcal/mol	2.85 ± 0.083 kcal/mol
SAGGSAGGSAGGGSFVLTRHTRTGLRRRVYFDPETGELTVELETGTESRTTLSPLSPDLSAGGSAGGSAGGS [r10_376_TrMRF]	-0.215 ± 0.2 kcal/mol	0.748 ± 0.064 kcal/mol	0.489 ± 0.058 kcal/mol
SAMIIVAMAPDRMLIIGPDGRVLVVDDPEKAIELIKELFPVPIIVIPVPEDSPVFRELLERLERERTGESAG [r14_235_TrMRF]	2.71 ± 0.08 kcal/mol	3.18 ± 0.11 kcal/mol	2.91 ± 0.14 kcal/mol
SAGGSAGGSAGKDKGQKEVPEINIRIEPVNFHWEYDKGNGKPKSIHFMFKIRYPNGREITSAGGSAGGSAGG [r11_890_TrROS]	1.24 ± 0.1 kcal/mol	0.674 ± 0.29 kcal/mol	1.15 ± 0.28 kcal/mol
SAGGSAGGSAGVRIDKDGWTIKWYNPDGEKRTFTVDSPEEAKDFLEENFPPGWRVEIEPPSAGGSAGGSAGG [r11_983_TrROS]	1.11 ± 0.046 kcal/mol	1.38 ± 0.056 kcal/mol	1.33 ± 0.13 kcal/mol
SAGGSAGGSDVTVTEYDVTLTVDVTFTAPDANGNPVTTTTPVTIPLKVTVFDFGTARLVVVEGSAGGSAGGS [r20_58_TrMRF]	2.86 ± 0.087 kcal/mol	3.82 ± 0.048 kcal/mol	3.57 ± 0.058 kcal/mol
SAGGSAGGSARVFIVITYQNPGDGKPRQITIPIDIKDGKITLDDLKELFPGYPITNISIFPLSAGGSAGGSA [r18_494_TrROS]	3.5 ± 0.14 kcal/mol	3.58 ± 0.12 kcal/mol	3.65 ± 0.13 kcal/mol
SAGGSAGGSPDLPELNIEPVSTLPDGSKIYRADVSPEAIARLKAANPAVTVEEHPDFLLLFLRESAGGSAGG [r6_395_JUSTAS]	0.475 ± 0.059 kcal/mol	0.666 ± 0.058 kcal/mol	0.565 ± 0.04 kcal/mol
SAGGSAGGSKLRLVLKFKTPEEAEEAARKLAEELKKKEGVKEVKVSVVKVNGEYYVVVEVEKESAGGSAGGS [r12_7_TrROS_Hall]	2.53 ± 0.27 kcal/mol	4.15 ± 0.11 kcal/mol	3.72 ± 0.25 kcal/mol
SAGGSAPKTVTFTTPKGYPITVTPGDRTVTLTHPDRPLATFDVPPDVPTFTITLPDGDTATITVDDSAGGSA [r2_385_TrMRF]	-0.581 ± 0.088 kcal/mol	-0.408 ± 0.19 kcal/mol	-0.446 ± 0.11 kcal/mol
SAMTTTTSVDPASGSSTVTTTEIIEKPAGKLPNGTKLPPVKVKKTTTTTYAPNGTKLSTTTTTTPVPLGSAG [r14_246_JUSTAS]	1.01 ± 0.064 kcal/mol	0.67 ± 0.11 kcal/mol	0.874 ± 0.086 kcal/mol
SAAVTPLTETIPYTPEEARAAAEEVAAARAAALRAAGYRVLSVDVVEMEPGEYVIRMRLTVAAPDEALPSAG [r14_973_JUSTAS]	2.22 ± 0.033 kcal/mol	3.12 ± 0.036 kcal/mol	2.86 ± 0.06 kcal/mol
SAGGSAPPVKVDVEELDDDLVKVTVTFPGGPFTLKLYKDGKLLKEETVPEDETATFVLPKDALIVGSAGGSA [r15_581_TrMRF]	0.847 ± 0.051 kcal/mol	1.59 ± 0.064 kcal/mol	1.36 ± 0.059 kcal/mol
SAGGMITLTVTREDWDTVYAKLKAEKNVTVKVVKGNTWSTYPASEVKALREEIPADPNEPLTLEIVESAGGS [r16_377_JUSTAS]	0.0201 ± 0.18 kcal/mol	0.382 ± 0.24 kcal/mol	0.283 ± 0.23 kcal/mol
SAGGSAGGSAEEVTVTVKIERTTEDGEKVEETITVTVPAEKLDELKKAAEEAGFTVVEVTPSAGGSAGGSAG [r3_453_TrROS_Hall]	2.68 ± 0.14 kcal/mol	2.19 ± 0.14 kcal/mol	2.38 ± 0.1 kcal/mol
SAYKITIKITITDPVTGETTTITVELISSEEEAKKEAEKLAASYPGKKVTIDLVEVVPVPPLSEEELKLSSA [r9_421_JUSTAS]	1.91 ± 0.081 kcal/mol	2.68 ± 0.054 kcal/mol	2.43 ± 0.12 kcal/mol
